In experiment [1] the target is mCherry-tagged neuroligin-1 (UniProt Q99K10).
Experiment [2] has the same target. This is another data set of the same source.

Sequence of UniProt Q99K10 (Q99K10 46-843): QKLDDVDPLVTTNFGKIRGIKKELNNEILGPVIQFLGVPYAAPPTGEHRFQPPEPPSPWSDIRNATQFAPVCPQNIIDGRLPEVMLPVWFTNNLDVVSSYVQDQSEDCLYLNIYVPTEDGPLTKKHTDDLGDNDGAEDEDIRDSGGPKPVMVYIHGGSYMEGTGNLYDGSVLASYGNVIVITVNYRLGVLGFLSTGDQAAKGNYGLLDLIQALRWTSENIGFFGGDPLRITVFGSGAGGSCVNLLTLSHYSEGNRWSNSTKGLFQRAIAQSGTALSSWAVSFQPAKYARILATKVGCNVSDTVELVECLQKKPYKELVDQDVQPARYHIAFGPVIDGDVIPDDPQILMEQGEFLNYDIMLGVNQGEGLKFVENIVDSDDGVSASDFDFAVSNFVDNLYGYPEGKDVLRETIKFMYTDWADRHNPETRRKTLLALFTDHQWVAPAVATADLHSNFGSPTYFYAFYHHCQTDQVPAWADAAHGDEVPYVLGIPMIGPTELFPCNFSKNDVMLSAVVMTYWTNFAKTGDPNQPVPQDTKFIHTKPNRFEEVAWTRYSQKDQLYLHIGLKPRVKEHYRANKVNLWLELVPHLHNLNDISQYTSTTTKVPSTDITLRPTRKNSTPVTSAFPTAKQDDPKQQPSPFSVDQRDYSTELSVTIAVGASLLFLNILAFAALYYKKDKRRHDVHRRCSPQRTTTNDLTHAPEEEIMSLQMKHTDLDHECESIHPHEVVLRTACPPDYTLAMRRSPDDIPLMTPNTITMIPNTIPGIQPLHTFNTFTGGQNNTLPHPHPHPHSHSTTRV

In experiment [1], “GFP-tagged neurexin-1β (from UniProt Q63373 47-468) (receptor)” registered an enrichment of GFP-Nrx1β at cell–cell contacts between co-cultured COS-7 cells expressing GFP-Nrx1β and cells expressing Nlg1-mCherry (fluorescence microscopy) of 3.9. The same substance registered a diffusion coefficient of single GFP-Nrx1β molecules inside the contact with a cell expressing Nlg1-mCherry (uPAINT single particle tracking at 50 Hz; Dout = 0.3 µm^2/s outside the contact) in experiment [2] of 0.04 µm^2/s.

Source of the values: PMC7672080.
